B1: TEKT4 (parent)
chain: LREKLLEAEQSLRNLEDIHMSLEK
B2: BTBD1 (parent)
chain: YGSIHGPTDYQVNIQIIEYEKKQT

Variants of: B1
Assay: protein stability index of a GFP-peptide fusion (GPS, HEK-293T) (PSI 1-6); higher = more stable
Conditions: c terminus: a fixed tail appended
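Also: lentivirally expressed fusions sorted by FACS into six bins by GFP to DsRed ratio, PSI derived from sequencing read proportions per bin multiplied by bin number.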

| Variant | protein stability index |
| --- | --- |
| LREYLLEAEQSLRNLEDIHMSLEK | 2.33 |
| LRERLLEAEQSLRNLEDIHMSLEK | 2.88 |
| LREELLEAEQSLRNLEDIHMSLEK | 3.17 |
| LREPLLEAEQSLRNLEDIHMSLEK | 3.54 |
| LRESLLEAEQSLRNLEDIHMSLEK | 2.63 |
| LRETLLEAEQSLRNLEDIHMSLEK | 3.9 |
| LREDLLEAEQSLRNLEDIHMSLEK | 4.01 |
| LREQLLEAEQSLRNLEDIHMSLEK | 2.17 |
| LREVLLEAEQSLRNLEDIHMSLEK | 2.51 |
| LREILLEAEQSLRNLEDIHMSLEK | 2.36 |
| LREMLLEAEQSLRNLEDIHMSLEK | 1.76 |
| LRENLLEAEQSLRNLEDIHMSLEK | 3.27 |
| LRECLLEAEQSLRNLEDIHMSLEK | 2.54 |
| LREGLLEAEQSLRNLEDIHMSLEK | 3.45 |
| HREKLLEAEQSLRNLEDIHMSLEK | 3.92 |
| RREKLLEAEQSLRNLEDIHMSLEK | 3.52 |
| WREKLLEAEQSLRNLEDIHMSLEK | 1.92 |
| KREKLLEAEQSLRNLEDIHMSLEK | 4.27 |
| QREKLLEAEQSLRNLEDIHMSLEK | 4.67 |
| DREKLLEAEQSLRNLEDIHMSLEK | 5.15 |
| EREKLLEAEQSLRNLEDIHMSLEK | 5.12 |
| YREKLLEAEQSLRNLEDIHMSLEK | 2.61 |

| Variant | protein stability index |
| --- | --- |
| CREKLLEAEQSLRNLEDIHMSLEK | 3.07 |
| AREKLLEAEQSLRNLEDIHMSLEK | 3.67 |
| GREKLLEAEQSLRNLEDIHMSLEK | 4.38 |
| SREKLLEAEQSLRNLEDIHMSLEK | 4.82 |
| TREKLLEAEQSLRNLEDIHMSLEK | 4.24 |
| PREKLLEAEQSLRNLEDIHMSLEK | 4.12 |
| VREKLLEAEQSLRNLEDIHMSLEK | 1.98 |
| IREKLLEAEQSLRNLEDIHMSLEK | 1.82 |
| NREKLLEAEQSLRNLEDIHMSLEK | 4.65 |
| MREKLLEAEQSLRNLEDIHMSLEK | 3.12 |
| FREKLLEAEQSLRNLEDIHMSLEK | 1.74 |
| LREKLLEAERSLRNLEDIHMSLEK | 2.69 |
| LREKLLEAEVSLRNLEDIHMSLEK | 2.08 |
| LREKLLEAEFSLRNLEDIHMSLEK | 2.89 |
| LREKLLEAENSLRNLEDIHMSLEK | 2.76 |
| LREKLLEAEKSLRNLEDIHMSLEK | 2.37 |
| LREKLLEAETSLRNLEDIHMSLEK | 2.77 |
| LREKLLEAELSLRNLEDIHMSLEK | 3.22 |
| LREKLLEAEHSLRNLEDIHMSLEK | 2.23 |
| LREKLLEAEDSLRNLEDIHMSLEK | 1.92 |
| LREKLLEAEPSLRNLEDIHMSLEK | 4.65 |
| LREKLLEAECSLRNLEDIHMSLEK | 3.01 |

| Variant | protein stability index |
| --- | --- |
| LREKLLEAESSLRNLEDIHMSLEK | 2.79 |
| LREKLLEAEISLRNLEDIHMSLEK | 1.34 |
| LREKLLEAEASLRNLEDIHMSLEK | 3.49 |
| LREKLLEAEGSLRNLEDIHMSLEK | 2.71 |
| LREKHLEAEQSLRNLEDIHMSLEK | 4.08 |
| LREKMLEAEQSLRNLEDIHMSLEK | 3.2 |
| LREKKLEAEQSLRNLEDIHMSLEK | 4.93 |
| LREKWLEAEQSLRNLEDIHMSLEK | 4.04 |
| LREKDLEAEQSLRNLEDIHMSLEK | 5.1 |
| LREKGLEAEQSLRNLEDIHMSLEK | 4.83 |
| LREKYLEAEQSLRNLEDIHMSLEK | 3.86 |
| LREKILEAEQSLRNLEDIHMSLEK | 2.72 |
| LREKNLEAEQSLRNLEDIHMSLEK | 5.13 |
| LREKVLEAEQSLRNLEDIHMSLEK | 2.66 |
| LREKRLEAEQSLRNLEDIHMSLEK | 4.49 |
| LREKTLEAEQSLRNLEDIHMSLEK | 4.67 |
| LREKSLEAEQSLRNLEDIHMSLEK | 4.68 |
| LREKPLEAEQSLRNLEDIHMSLEK | 4.75 |
| LREKQLEAEQSLRNLEDIHMSLEK | 5.21 |
| LREKALEAEQSLRNLEDIHMSLEK | 4.49 |
| LREKFLEAEQSLRNLEDIHMSLEK | 3.27 |
| LREKELEAEQSLRNLEDIHMSLEK | 5.05 |

| Variant | protein stability index |
| --- | --- |
| LREKCLEAEQSLRNLEDIHMSLEK | 2.44 |
| LRRKLLEAEQSLRNLEDIHMSLEK | 2.69 |
| LRCKLLEAEQSLRNLEDIHMSLEK | 1.96 |
| LRKKLLEAEQSLRNLEDIHMSLEK | 2.1 |
| LRQKLLEAEQSLRNLEDIHMSLEK | 2.82 |
| LRAKLLEAEQSLRNLEDIHMSLEK | 2.29 |
| LRDKLLEAEQSLRNLEDIHMSLEK | 2.02 |
| LRPKLLEAEQSLRNLEDIHMSLEK | 2.24 |
| LRTKLLEAEQSLRNLEDIHMSLEK | 1.63 |
| LRFKLLEAEQSLRNLEDIHMSLEK | 2.46 |
| LRNKLLEAEQSLRNLEDIHMSLEK | 2.27 |
| LRSKLLEAEQSLRNLEDIHMSLEK | 2.47 |
| LRHKLLEAEQSLRNLEDIHMSLEK | 2.71 |
| LRMKLLEAEQSLRNLEDIHMSLEK | 2.88 |
| LRGKLLEAEQSLRNLEDIHMSLEK | 1.96 |
| LRYKLLEAEQSLRNLEDIHMSLEK | 2.15 |
| LRWKLLEAEQSLRNLEDIHMSLEK | 1.81 |
| LRVKLLEAEQSLRNLEDIHMSLEK | 2.01 |
| LRLKLLEAEQSLRNLEDIHMSLEK | 2.58 |

Variants of: B2
Assay: as above
Conditions: c terminus: a fixed tail appended

| Variant | protein stability index |
| --- | --- |
| YGSIHGPTDYQVNIQIIETEKKQT | 2.92 |
| YGSIHGPTDYQVNIQFIEYEKKQT | 2.51 |
| YGSITGPTDYQVNIQIIEYEKKQT | 2.52 |
| YGSIHGYTDYQVNIQIIEYEKKQT | 1.75 |
| YGSIHGPTDYQVNIQIIEYEKKFT | 1.61 |
| YGSIHGPTDYQVNIQILEYEKKQT | 2.68 |
| YGSIHGPTDLQVNIQIIEYEKKQT | 2.87 |
| YGSIHGPTDDQVNIQIIEYEKKQT | 4.3 |
| YGSIHGPTDIQVNIQIIEYEKKQT | 2.44 |

Source: the supplement of paper PMC10567573
